The Kd is a measure of binding affinity in units of concentration. A low value points to a tighter complex.

Where no end group is shown, it is not given here. Me3 = trimethyl-lysine (Kme3); Me2 = dimethyl-lysine (Kme2)

Experimental findings from PMC10570030 (Nucleic Acids Research, 2023) are described below.

One assay concerns the target LEDGF/p52 (UniProt O75475-2 1-333). Nature of the assay: NMR titration.
Another assay addresses LEDGF/p75 (UniProt O75475 1-530). The assay is described as follows: SEC. (In general: SEC sorts molecules by how far they enter the pores of the column.)

Molecule SAPATGGVK(Me2)KPHRY [histone H3 peptide SAPATGGVKme2KPHRY] yielded a dissociation constant Kd with LEDGF/p52 of 2.4 mM.

B1: PogZ(1117–1410) (domain or fragment)
chain: SNAASLPLSMIVAIDEISLFLDTEVLSSDDRKENALQTVGTGEPWCDVVLAILADGTVLPTLVFYRGQMDQPANMPDSILLEAKESGYSDDEIMELWSTRVWQKHTACQRSKGMLVMDCHRTHLSEEVLAMLSASSTLPAVVPAGCSSKIQPLDVCIKRTVKNFLHKKWKEQAREMADTACDSDVLLQLVLVWLGEVLGVIGDCPELVQRSFLVASVLPGPDGNINSPTRNADMQEELIASLEEQLKLSGEHSESSTPRPRSSPEETIEPESLHQLFEGESETESFYGFEEADLDLMEI
With B1, the binding result with LEDGF/p75 was “binds”.

In the assay with LEDGF/p52, SAPATGGVK(Me)KPHRY [histone H3 peptide SAPATGGVKme1KPHRY] yielded a Kd of 5.4 mM.

Regarding SAPATGGVKKPHRY [histone H3 peptide SAPATGGVKKPHRY, unmodified], the dissociation constant (Kd) with LEDGF/p52 came to 6 mM.

The molecule SAPATGGVK(Me3)KPHRY [histone H3 peptide SAPATGGVKme3KPHRY] displayed a dissociation constant Kd in the assay with LEDGF/p52 of 2.7 mM.
